# Reference: US7611721B1, “Adjuvant combination formulations” (priority 2000, dated 2009)
# Where two headings read alike, the source gives them in different places.
# B1: GM-CSF: Recombinant murine granulocyte macrophage colony stimulating factor (protein, UniProt P01587 18-141, looked up)
# Granulocyte-macrophage …: APTRSPITVTRPWKHVEAIKEALNLLDDMPVTLNEEVEVVSNEFSFKKLTCVQTRLKIFEQGLRGNFTKLKGALNMTASYYQTYCPPTPETDCETQVTTYADFIDSLKTFLTDIPFECKKPGQK
# Legend:
# [1] = test system: spleen cells; test: Secretion of IL-4 by spleen cells (ELISA); assay type: cell-based, Balb/c mice
# Experimental: For proliferation assays and in vitro cytokine analysis, spleen cells were obtained from mice at the indicated time points. Single cell suspensions were prepared from pools of 3-5 mice as indicated in Results. For proliferation and cytokine analysis, cells were suspended in round bottom 96 well culture plates precoated overnight with HIV peptide antigens, control proteins, or RPMI-10 only. Spleen cells were added at 5×10^5 cells/well using culture medium having 2× supplements. Cell culture supernatants were harvested from triplicate wells for cytokine analysis three or six days after culture initiation. Immediately after supernatant harvest, cultures were pulsed with ^3H-thymidine for 18-24 hours, and harvested to quantify cell proliferation.
# For cytokine analysis, cell culture supernatants were added to wells coated with BVD6-11B11 (for anti-IL4), or R4-6A2 (for interferon-gamma). After incubation and washing, wells were developed using biotin-labeled BVD6-24G2 (for IL4) or XMG 1.2 (for interferon-gamma). The concentration of cytokines was determined using a standard curve prepared from recombinant murine interferon-gamma or interleukin-4. All cytokine reagents were purchased from Pharmingen (San Diego, Calif.).
# Interleukin-4 secreted into culture by spleen cells stimulated with 25 μg T1SP10MN(A) (−Cys) was measured. Spleen cells were harvested from pools of five Balb/c female mice and cultured with the indicated antigenic stimuli (50 ng IL-12, 10 μg GM-CSF, 50 μg MPL™ as indicated) for either three or six days. Interleukin-4 levels were determined by ELISA, and compared to a standard having a known concentration. Blank wells indicate that the assay could not detect Interleukin-4 from those culture conditions. The lower limit of detection sensitivity was 22 Units/ml.
# Cells were cultured for a total of 96 hours. Cell culture supernatants were analyzed for IL-4 by ELISA. All values were after subtraction from those determined from supernatants of cells stimulated with 10 μg of an irrelevant protein (lysozyme). Results which were below the limit of detection, after subtraction from stimulation induced with lysozyme are indicated as “bd”. The adjuvants were 40 ng IL-12, 10 μg GM-CSF and 50 μg MPL™.
# [2] = test system: T1SP10MN(A) (−Cys)
# Experimental: Mice were immunized subcutaneously in the rump, in a total volume of 0.2 ml equally divided on each side of the tail. Immunizations were administered at varying time intervals, as indicated below. Antigen and cytokines were diluted in phosphate buffered saline to the appropriate concentrations and formulated with adjuvants less than 16 hours prior to immunization, under sterile conditions. Vaccines were mixed by gentle agitation, and stored at 4° C. Formulations were mixed by vortex immediately prior to immunization.
# Animals were bled prior to initial immunization, and at indicated time points. Serum was analyzed from individual mice, or as pools from mice within groups.
# For analysis of HIV peptide-specific antibody and subclass distribution, peptide was suspended in either carbonate buffer (15 mM Na2CO3, 35 mM NaHCO3, pH 9.6), or PBS, at a concentration of 1 μg/ml and plated to 96 well microtiter plates (Nunc) in a volume of 100:1. After overnight incubation at 37° C., plates were washed, and blocked (0.1% gelatin/PBS) at room temperature for 2-4 hours. ELISA plates were washed with wash buffer (PBS, 0.1% Tween™20) before addition of serially diluted serum (PBS, 0.1% gelatin, 0.05% Tween™20, 0.02% sodium azide). After a four hour incubation, wells were washed and appropriate dilutions of biotinylated anti-isotype/subclass antibodies were added for incubation at 4° C. overnight. Wells were washed and incubated with strepavidin-conjugated horseradish peroxidase. After incubation, wells were washed, and developed with ABTS. Wells were read at 405 nm. Titers were standardized using control sera.
# Reciprocal anti-HIV peptide-specific IgG endpoint titers were measured from pooled serum (n=5 Balb/c) at the indicated time points after initial immunization. Mice were immunized subcutaneously in the rump with 25 μg of T1SP10MN(A) (−Cys), unless otherwise indicated, on day 0, and on day 27. For recipients of Freund's adjuvants, mice were primed with peptide emulsified in CFA, and boosted with IFA. MPL™ SE was provided as an emulsion containing 2% squalene oil and 50 μg MPL™ per dose. SE is an oil-in-water emulsion vehicle consisting of squalene, glycerol, and an emulsifying agent. Recombinant murine IL-12 was delivered at 50 ng/mouse. Recombinant murine GM-CSF was delivered at 10 μg/mouse.
# Reciprocal endpoint IgG subclass titers were measured from pooled serum (n=5 Balb/c) six weeks after initial immunization, two weeks after secondary immunization. Mice were immunized subcutaneously in the rump with 25 μg of peptide, unless otherwise indicated. For recipients of Freund's adjuvants, mice were primed with peptide emulsified in complete Freund's adjuvant, and boosted with incomplete Freund's adjuvant on weeks four and six. MPL™ SE was provided as an emulsion containing 2% squalene oil and 50 μg MPL™ per dose. SE is an oil-in-water emulsion vehicle consisting of squalene, glycerol, and an emulsifying agent. Recombinant murine IL-12 was delivered at 50 ng/mouse. Recombinant murine GM-CSF was delivered at 10 μg/mouse.
# Mice were immunized subcutaneously in the rump, in a total volume of 0.2 ml equally divided on each side of the tail. Immunizations were administered on days 0 and 21 with 25 μg of the HIV peptide, together with the indicated amount of adjuvant(s).
# Reciprocal anti-peptide IgG endpoint titers were measured from either geometric means from individual mice (GMT) or from pooled serum (n=5 Balb/c), obtained 14 days after the second immunization. IgG1 and IgG2a subclass endpoint titers were also measured from pooled serum.
# [3] = Experiment 2, 96 hours culture, after subtraction of lysozyme value, bd = below limit of detection
# [4] = Experiment 1, pooled serum n=5 Balb/c, 25 μg peptide s.c. day 0 and 27
# [5] = Experiment 1, pooled serum n=5 Balb/c, six weeks after initial, two weeks after secondary immunization, 25 μg peptide
# [6] = Experiment 2, pooled serum n=5 Balb/c, 14 days after second immunization
# [7] = Experiment 4, individual Balb/c mouse, day 41, 13 days after secondary immunization (days 0 and 28)
# [8] = Experiment 4, pooled serum n=5 Balb/c, day 41, 13 days after secondary immunization
# [9] = Experiment 5, pooled serum n=5 Balb/c, immunized days 0 and 22, bled day 42
molecule,measurement,setting,value
B1,"Secretion of IL-4, Con A 1 μg/ml","[1]; Experiment 1, Three Day Cultures, detection limit 22 Units/ml",159 Units/ml
same,"Secretion of IL-4, Con A 5 μg/ml","[1]; Experiment 2, 96 hours culture, after subtraction of lysozyme value",226 pg/mL
same,"Secretion of IL-4, HIV Peptide 1.1 μg/ml",[1]; [3],36 pg/mL
same,"Secretion of IL-4, HIV Peptide 3.3 μg/ml",[1]; [3],9 pg/mL
same,"Secretion of IL-4, HIV Peptide 10 μg/ml",[1]; [3],bd
same,"Reciprocal anti-T1SP10MN(A) (-Cys) IgG endpoint titer, WEEK 4",[2]; [4],<100
same,"Reciprocal anti-T1SP10MN(A) (-Cys) IgG endpoint titer, WEEK 6",[2]; [4],"17,579"
same,"Reciprocal anti-T1SP10MN(A) (-Cys) IgG endpoint titer, WEEK 8",[2]; [4],"12,537"
same,Reciprocal anti-T1SP10MN(A) (-Cys) IgG1 endpoint titer,[2]; [5],"1,783"
same,Reciprocal anti-T1SP10MN(A) (-Cys) IgG2a endpoint titer,[2]; [5],<100
same,Reciprocal anti-T1SP10MN(A) (-Cys) IgG2b endpoint titer,[2]; [5],<100
same,Reciprocal anti-T1SP10MN(A) (−Cys) IgG (GMT) endpoint titer,"[2]; Experiment 2, geometric mean of individual Balb/c mice, 14 days after second immunization","1,756"
same,Reciprocal anti-T1SP10MN(A) (−Cys) IgG1 (pool) endpoint titer,[2]; [6],"14,538"
same,Reciprocal anti-T1SP10MN(A) (−Cys) IgG2a (pool) endpoint titer,[2]; [6],"4,864"
same,Reciprocal anti-T1SP10MN(A) (−Cys) IgG (pool) endpoint titer,"[2]; Experiment 2, pooled serum n=5 Balb/c, immunized days 0 and 21, 14 days after second immunization","27,333"
same,"IgG serum titer specific for T1SP10MN(A) (−Cys), Mouse #1",[2]; [7],50
same,"IgG serum titer specific for T1SP10MN(A) (−Cys), Mouse #2",[2]; [7],50
same,"IgG serum titer specific for T1SP10MN(A) (−Cys), Mouse #3",[2]; [7],50
same,"IgG serum titer specific for T1SP10MN(A) (−Cys), Mouse #4",[2]; [7],50
same,"IgG serum titer specific for T1SP10MN(A) (−Cys), Mouse #5",[2]; [7],50
same,"Geometric Mean IgG serum titer specific for T1SP10MN(A) (−Cys), GMT","[2]; Experiment 4, n=5 Balb/c, day 41, 13 days after secondary immunization",50
same,Reciprocal anti-T1SP10MN(A) (−Cys) IgG1 endpoint titer,[2]; [8],"5,514"
same,Reciprocal anti-T1SP10MN(A) (−Cys) IgG2a endpoint titer,[2]; [8],<100
same,Reciprocal anti-T1SP10MN(A) (−Cys) IgG2b endpoint titer,[2]; [8],<100
same,Reciprocal anti-T1SP10MN(A) (−Cys) IgG GMT,"[2]; Experiment 5, geometric mean n=5 Balb/c, immunized days 0 and 22, bled day 42","5,133"
same,Reciprocal anti-T1SP10MN(A) (−Cys) IgG1 endpoint titer,[2]; [9],"3,815"
same,Reciprocal anti-T1SP10MN(A) (−Cys) IgG2a endpoint titer,[2]; [9],<1000
same,Reciprocal anti-T1SP10MN(A) (−Cys) IgG2b endpoint titer,[2]; [9],<1000
same,Reciprocal anti-T1SP10MN(A) (−Cys) IgG endpoint titer,[2]; [9],"11,639"
